The text below walks through data of patent publication US20180079808A1.

As usually defined, the Kd is the constant that tells how readily two partners part at equilibrium.

Test [1] has as its target human IL-13 variant (R130Q) (human) (UniProt P35225).
Test [2] has as its target human IL-13 wild type (human) (UniProt P35225).
The target of test [3] is cynomolgus monkey rIL-13 (cynomolgus monkey) (UniProt Q0PW92).
The target in test [4] is human IL-13 variant (R130Q) (human) (UniProt P35225). Description: column 'Affinity, KD (nM)', hIL-13v; method not given.
Sequence of human IL-13 variant (R130Q) (human) (P35225 35-146 limits assumed, stated change not applied): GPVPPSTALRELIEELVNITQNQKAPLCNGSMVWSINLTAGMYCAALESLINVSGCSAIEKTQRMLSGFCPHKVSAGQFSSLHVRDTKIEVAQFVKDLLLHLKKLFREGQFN
Test [5] addresses human IL-13 wild type (human) (UniProt P35225). Description: column 'Affinity, KD (nM)', hIL-13wt; method not given.

Sequence of human IL-13 wild type (human) (P35225 other isoform, or with tags, fused parts or gaps limits assumed): as the sequence (P35225 35-146 limits assumed, stated change not applied) above, with Q110R counted along it
Sequence of cynomolgus monkey rIL-13 (cynomolgus monkey) (Q0PW92 entry or part of it): as the sequence (P35225 35-146 limits assumed, stated change not applied) above, with G1S, R10K, M42V, S67N, H83R, L100V counted along it

B1: 13C5, murine version (antibody, from another filing, V domains shown)
VH: QVTLKESGPGILQPSQTLSLTCSFSGFSLSTSDMGVDWIRQPSGKGLEWLAHIWWDDVKRYNPALKSRLTISKDTSSSQVFLMLASVDTADTATYYCARTVSSGYIYYAMDYWGQGTSVTVSS
VL: DIQMTQTASSLSASLGDRVTISCRASQDIRNYLNWYQRKPDGTVKLLIFYTSKLHSGVPSRFSGSGSGTDYSLTIRNLEQEDIATYFCQQGNTLPLTFGGGTKLEIKR
In the case of B1, in test [1], the Potency, IC50 (neutralisation of hIL-13v; assay not given) was found to be 0.17 nM. The Potency, IC50 (neutralisation of hIL-13wt; assay not given) in test [2] amounted to 0.19 nM. In test [3], this molecule came in with a Potency, IC50 (neutralisation of Cyno IL-13; assay not given) of 0.9 nM. For the same molecule, the Kd in test [4] is 0.076 nM; in test [5], 0.075 nM.
